Assay [1] deals with T1, Wnt3a binding to LRP6 E1E4 (Homo sapiens, UniProt O75581).
T1 construct: construct E1E4-amino acids A20-Q1253 of LPR6; made in house; host or cells: Tni insect cells (baculovirus, secreted)
T1 sequence (O75581 20-1253): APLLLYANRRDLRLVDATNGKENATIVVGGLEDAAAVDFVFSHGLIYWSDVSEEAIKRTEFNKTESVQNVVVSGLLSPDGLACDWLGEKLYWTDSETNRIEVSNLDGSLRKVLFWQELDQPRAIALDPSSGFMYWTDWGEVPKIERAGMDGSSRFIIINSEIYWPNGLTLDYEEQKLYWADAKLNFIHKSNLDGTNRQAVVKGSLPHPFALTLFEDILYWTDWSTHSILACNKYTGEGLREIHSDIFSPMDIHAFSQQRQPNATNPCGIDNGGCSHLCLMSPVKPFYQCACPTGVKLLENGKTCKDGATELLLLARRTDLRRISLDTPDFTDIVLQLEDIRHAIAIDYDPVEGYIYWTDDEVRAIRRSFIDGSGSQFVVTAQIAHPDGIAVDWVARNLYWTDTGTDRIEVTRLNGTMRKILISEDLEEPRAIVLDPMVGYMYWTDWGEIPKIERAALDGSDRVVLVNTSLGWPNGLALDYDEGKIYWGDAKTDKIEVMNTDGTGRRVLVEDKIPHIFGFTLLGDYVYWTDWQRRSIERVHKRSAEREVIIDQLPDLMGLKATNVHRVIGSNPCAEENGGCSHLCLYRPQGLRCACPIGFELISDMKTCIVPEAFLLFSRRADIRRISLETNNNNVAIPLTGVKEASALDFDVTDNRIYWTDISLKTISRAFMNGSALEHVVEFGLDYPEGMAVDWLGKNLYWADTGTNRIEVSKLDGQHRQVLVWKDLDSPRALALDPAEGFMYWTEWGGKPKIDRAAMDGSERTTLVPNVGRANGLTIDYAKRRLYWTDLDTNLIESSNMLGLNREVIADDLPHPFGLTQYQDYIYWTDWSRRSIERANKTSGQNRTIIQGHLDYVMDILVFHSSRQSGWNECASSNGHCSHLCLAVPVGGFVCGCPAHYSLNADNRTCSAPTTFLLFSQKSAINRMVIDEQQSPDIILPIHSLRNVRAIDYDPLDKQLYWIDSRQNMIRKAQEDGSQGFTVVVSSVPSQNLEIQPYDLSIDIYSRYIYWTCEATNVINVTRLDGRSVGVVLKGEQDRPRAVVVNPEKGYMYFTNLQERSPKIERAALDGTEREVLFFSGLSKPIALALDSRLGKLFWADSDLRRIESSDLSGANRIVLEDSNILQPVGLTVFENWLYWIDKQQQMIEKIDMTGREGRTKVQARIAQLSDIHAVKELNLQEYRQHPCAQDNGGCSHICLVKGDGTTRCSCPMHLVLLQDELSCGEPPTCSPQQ
In words: Wnt3a binding to LRP6 E1E4 in presence of inhibitor. The settings on record: inhibitor 125 nM, Wnt 125 nM. The method, then:
(§1) FIG. 11. Wnt binding to LRP6 E1E4 in the presence or absence of Dkk1 or sclerostin.
(§2) Binding kinetics were measured by biolayer interferometry using an Octet Red instrument (ForteBio) as previously described (11). Streptavidin (SA) biosensors were loaded with biotinylated hLRP6 in 50 mMTris, pH 8, 300 mM NaCl, 5% (v/v) glycerol, and 0.05% (w/v) Triton X-100. The loaded biosensors were washed in the same buffer before carrying out association and dissociation measurements for the indicated times. The Kd of each interaction was determined using steady state-analysis through the Octet Red software v6.3. Each reported value represents an average of three or more experiments at different concentrations, with a fitted experimental curve for which the square of the correlation coefficient (R^2) is above 0.96.
(§3) Wnt9b also binds to the E1E2 region but not to the E3E4 region (11). Accordingly, sclerostin inhibits Wnt9b binding to LRP6 E1E4 (FIG. 11). […] Accordingly, Dkk1 inhibits the binding of both Wnt3a and Wnt9b to LRP6 E1E4 (FIG. 11).

Assay [2] addresses T2, Wnt9b binding to LRP6 E1E4 (Homo sapiens, UniProt O75581).
T2 construct: construct E1E4-amino acids A20-Q1253 of LPR6; made in house; host or cells: Tni insect cells (baculovirus, secreted)
T2 sequence (O75581 20-1253): T1 sequence (O75581 20-1253)
In words: Wnt9b binding to LRP6 E1E4 in presence of inhibitor. The settings on record: inhibitor 125 nM, Wnt 125 nM. The procedure:
as §1, §2, §3

Assay [3] addresses T3, LRP6 E1E2 variants with LRP5 BMD substitutions (Homo sapiens, UniProt O75581, R141M).
T3 construct: construct E1E2-amino acids A20-E631 of LPR6; made in house; host or cells: insect cells (Tni, baculovirus)
T3 sequence (O75581 20-631 R141M): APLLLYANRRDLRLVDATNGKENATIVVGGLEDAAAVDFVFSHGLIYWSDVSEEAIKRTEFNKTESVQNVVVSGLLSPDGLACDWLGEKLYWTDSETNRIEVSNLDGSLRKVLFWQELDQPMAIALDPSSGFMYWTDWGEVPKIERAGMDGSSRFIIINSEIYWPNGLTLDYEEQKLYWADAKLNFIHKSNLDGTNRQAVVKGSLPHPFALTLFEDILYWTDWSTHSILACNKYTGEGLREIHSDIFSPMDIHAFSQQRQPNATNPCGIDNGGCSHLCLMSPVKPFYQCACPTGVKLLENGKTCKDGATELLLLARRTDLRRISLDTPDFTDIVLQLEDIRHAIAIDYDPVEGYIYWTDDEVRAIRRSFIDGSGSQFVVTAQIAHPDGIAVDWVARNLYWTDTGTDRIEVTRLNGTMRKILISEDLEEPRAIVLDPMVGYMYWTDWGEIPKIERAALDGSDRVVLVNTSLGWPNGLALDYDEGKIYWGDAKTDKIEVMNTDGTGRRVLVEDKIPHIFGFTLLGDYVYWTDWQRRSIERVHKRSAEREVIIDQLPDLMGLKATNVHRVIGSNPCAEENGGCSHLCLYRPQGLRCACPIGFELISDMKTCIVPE
The assay is described as follows: Steady-state affinity for LRP6 E1E2 variants carrying LRP5 BMD substitutions. It is filed as binding. The settings on record: LRP6 Arg141Met vs wild type LRP6 E1E2. The method, then:
(§4) FIG. 13. Introduction of LRP5 BMD substitutions into LRP6 E1E2 lowers affinity for Wnt inhibitors. The five substitutions characterized are indicated on the y-axis. Steady-state affinity measurements were made for Wnt9b, Dkk1, and sclerostin binding to each of the LRP6 variants.
as §2
(§5) Cells transfected with LRP5 variants carrying BMD mutations show reduced binding to sclerostin and are less sensitive to sclerostin inhibition of Wnt10b or Wnt6 signaling (70). To further test the effects of the BMD substitutions, we introduced several of them into LRP6 E1E2, with the results shown in FIG. 13. LRP6 E1E2 Gly158Val could not be expressed in insect cells. […] Importantly, not only is the binding to sclerostin affected (70), but the binding of Dkk1 to its E1 interaction site is also impaired.

For assay [4], the system named is LRP6 E1E2 variants with LRP5 BMD substitutions. The assay is described as above. It counts as binding, human. The method, then:
as §4, §2, §5

On to “Dkk1: Dickkopf 1 protein, Wnt pathway inhibitor, expressed in insect cells (NSNAIKN)”, for which the “inhibition of Wnt3a binding to LRP6 E1E4” value in assay [1] was “inhibits”. Further, the “inhibition of Wnt9b binding to LRP6 E1E4” value in assay [2] is “inhibits”. The “loss in affinity for LRP6 E1E2 Arg141Met” value in assay [3] was 29 fold. Further, in assay [4], the “effect of LRP6 BMD mutations on binding to LRP6 E1E2 (in words)” value is on record as “disrupt the binding”.

Regarding “sclerostin: Sclerostin protein, Wnt pathway inhibitor, expressed in insect cells (LPNAIGR)”, the “inhibition of Wnt3a binding to LRP6 E1E4” value in assay [1] is reported as “unable to inhibit”. Besides, in assay [2], the “inhibition of Wnt9b binding to LRP6 E1E4” value was “inhibits”. The “loss in affinity for LRP6 E1E2 Arg141Met” value in assay [3] is recorded as 31 fold. Moreover, in assay [4], the “effect of LRP6 BMD mutations on binding to LRP6 E1E2 (in words)” value is recorded as “disrupt the binding”.

Source of the values: patent publication US20140235820A1, “METHODS AND COMPOSITIONS FOR MODULATING THE Wnt PATHWAY” (Genentech, Inc., priority 2010, published 2014).
